Assay [1] has as its target T1, MBP-MUC16^ecto (maltose binding protein fused to the 26-residue MUC16 ectodomain segment) (Homo sapiens).
T1 construct: linker between MBP and the MUC16 segment; Cloned into pMal-C5X (NEB); Only one of the two PDB entries holds this chain; also called MBP-fused MUC16-target; MBP-tagged MUC16-target (wt); source: E. coli BL21-RIL (DE3), purified (amylose resin, Superdex-75); not shown: MBP, N-terminal, kept
T1 chain: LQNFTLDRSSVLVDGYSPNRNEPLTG
Briefly: pull-down; MBP pull-down on amylose resin; MBP-tagged MUC16-target as bait (~20 µg), scFv as prey at 2-fold molar excess; 50 mM Tris-HCl pH 8.0, 400 mM NaCl, 1 mM EDTA, 1 mM DTT, 4 °C, 3 h; three washes; SDS-PAGE. The conditions noted are these: both partners purified.

For assay [2], the target named is T2, native glycosylated MUC16 expressed on cancer cells (OVCAR3, SKBR3) (human (endogenous in OVCAR3 and SKBR3), UniProt Q8WXI7, glycosylated (native)).
T2 construct: MUC16 (mucin 16), as expressed on the surface of OVCAR3 and SKBR3 cells; also called Mucin 16; cellular MUC16; source: endogenous, on OVCAR3 and SKBR3 cells
In words: immunostaining of cells or tissue; Alexa-conjugated scFv on fixed cells; Alexa-350-WGA as membrane marker; OVCAR3 and SKBR3 (MUC16-expressing), HEK293T/17 and SKOV3 as controls. The conditions noted are these: one partner purified.

Assay [3] has as its target T1, MBP-MUC16^ecto (maltose binding protein …). In words: ITC; ITC200, 23 °C; scFv (12.8 µM) in the cell, MUC16 peptide (144 µM) or MBP-MUC16^ecto (130 µM) in the syringe; 50 mM Tris pH 8.0, 400 mM NaCl (the results say pH 7.4); average of three experiments. To be noted: both partners purified. For orientation: In ITC the heat of successive injections is recorded.
Assay [4] addresses T3, commercially synthesized MUC16^ecto peptide (26 residues) (Homo sapiens).
T3 construct: also called synthesized MUC16-target; the synthesized peptide; source: synthetic peptide (commercially synthesized)
T3 chain: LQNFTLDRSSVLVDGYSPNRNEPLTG
The description is as above. The conditions noted are these: both partners purified.

B1: 4H11-scFv with VH double mutations S53A/D106A (scFv, V domains shown)
VH: EVKLQESGGGFVKPGGSLRVSCAASGFTFSSYAMSWVRLAPEMRLEWVATISAAGGYIFYSDSVQGRFTISRDNAKNSLHLQMGSLRSGDTAMYYCARQGFGNYGAYYAMDYWGQGTTVTVSS
VL: DIELTQSPSSLAVSAGERVTMNCKSSQSLLNSRTRKNQLAWYQQKPGQSPELLIYWASTRQSGVPDRFSGSGSGTDFTLTISSVQAEDVAVYYCQQSYNLLTFGPGTKLEIK
notes: as the VH of m1 (hVH2, E1-S123); linker (GGGGS)5; as the VL of m1 (hVL1, D1-R113 = scFv residues 149-261); Made by QuikChange mutagenesis of m1; also called scFv mutant S53A/D106A; source: ExpiCHO-S, transfected (same lentivector as the wild type)
Turning to B1, in assay [1], the binding result is given as “binds”.

B2: Alexa-fluorescence conjugated 4H11-scFv (scFv, V domains shown)
VH: EVKLQESGGGFVKPGGSLRVSCAASGFTFSSYAMSWVRLAPEMRLEWVATISSAGGYIFYSDSVQGRFTISRDNAKNSLHLQMGSLRSGDTAMYYCARQGFGNYGDYYAMDYWGQGTTVTVSS
VL: DIELTQSPSSLAVSAGERVTMNCKSSQSLLNSRTRKNQLAWYQQKPGQSPELLIYWASTRQSGVPDRFSGSGSGTDFTLTISSVQAEDVAVYYCQQSYNLLTFGPGTKLEIK
notes: as the VH of m1 (hVH2, E1-S123); linker (GGGGS)5; as the VL of m1 (hVL1, D1-R113 = scFv residues 149-261); also called Alexa-4H11-scFv; Alexa-labeled scFv; source: purified 4H11-scFv labeled with Alexa Fluor 488 carboxylic acid, further purified by Superdex-75
Regarding B2, the binding result in assay [2] was “binds”.

B3: 4H11-scFv (H2L1), VH-linker (GGGGS)5-VL (scFv, V domains shown)
VH: EVKLQESGGGFVKPGGSLRVSCAASGFTFSSYAMSWVRLAPEMRLEWVATISSAGGYIFYSDSVQGRFTISRDNAKNSLHLQMGSLRSGDTAMYYCARQGFGNYGDYYAMDYWGQGTTVTVSS
VL: DIELTQSPSSLAVSAGERVTMNCKSSQSLLNSRTRKNQLAWYQQKPGQSPELLIYWASTRQSGVPDRFSGSGSGTDFTLTISSVQAEDVAVYYCQQSYNLLTFGPGTKLEIK
notes: humanized 4H11 VH (hVH2 of H2L1), E1-S123; linker (GGGGS)5, residues 124-148 of the scFv; humanized 4H11 VL (hVL1 of H2L1), D1-R113, which are residues 149-261 of the scFv; N-terminal signal peptide in the construct for secretion; also called h4H11-scFv; H2L1 4H11-scFv
B3: the Kd was around 2 nM in assay [3] and around 1.4 nM in assay [4].

B4: 4H11-scFv with VL double mutations Y246A/N247A (scFv, V domains shown)
VH: EVKLQESGGGFVKPGGSLRVSCAASGFTFSSYAMSWVRLAPEMRLEWVATISSAGGYIFYSDSVQGRFTISRDNAKNSLHLQMGSLRSGDTAMYYCARQGFGNYGDYYAMDYWGQGTTVTVSS
VL: DIELTQSPSSLAVSAGERVTMNCKSSQSLLNSRTRKNQLAWYQQKPGQSPELLIYWASTRQSGVPDRFSGSGSGTDFTLTISSVQAEDVAVYYCQQSAALLTFGPGTKLEIK
notes: as the VH of m1 (hVH2, E1-S123); linker (GGGGS)5; as the VL of m1 (hVL1, D1-R113) with the stated changes. numbers count on: the whole scFv (VL begins at D149); Made by QuikChange mutagenesis of m1; also called scFv mutant Y246A/N247A; source: ExpiCHO-S, transfected (same lentivector as the wild type)
Consider B4, for which the binding result in assay [1] was “binds”.

The Kd is the equilibrium constant for the complex coming apart.

(Values after paper PMC10875768, “Structural basis for antibody recognition of the proximal MUC16 ectodomain” (Journal of Ovarian Research, 2024).)
